Measurements published in the supplement of paper PMC7877785.
± gives the uncertainty stated by the source.

Assay: self-splicing fitness, log relative to wild type (ln ratio); higher = more splicing; Tetrahymena group I intron in knt gene, E. coli kanamycin selection, DiMSum; sequences stand for … in CUCUCU…GGAGGGAAAAGUUAUCAGGCAUGCACCUGGUAGCUAGUCUUUAAACCAAUAGAUUGCAUCGGUUUAAAAGGCAAGACCGUCAAAUUGCGGGAAAGGGGUCAACAGCCGUUCAGUACCAAGUCUCAGGGGAAACUUUGAGAUGGCCUUGCAAAGGGUAUGGUAAUAAGCUGACGGACAUGGUCCUAACCACGCAGCCAAGUCCUAAGUCAACAGAUCUUCUGUUGAUAUGGAUGCAGUUCACAGACUAAAUGUCGGUCGGGGAAGAUGUAUUCUUCUCAUAAGAUAUAGUCGGACCUCUCCUUAAUGGGAGCUAGCGGAUGAAGUGAUGCAACACUGGAGCCGCUGGGAACUAAUUUGUAUGCGAAAGUAUAUUGAUUAGUUUUGGAGUACUCGUGGUCG
Procedure, shortened: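 The eight P1ex-region nucleotides of an intron in the knt kanamycin-resistance gene on pET-22b(+) were all randomised and the library put into E. coli BL21(DE3). Six replicate transformations were grown overnight at 37°C or 30°C on LB agar with or without 25 μg/mL kanamycin, together with 100 μg/mL carbenicillin, 50 μM IPTG and 0.2% rhamnose. Colonies were pooled and amplicon-sequenced on an Illumina HiSeq 2500. Fitness from DiMSum is the error-weighted combination of wild-type-normalised replicate fold changes, kanamycin over none.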

| Sequence | self-splicing fitness (ln) (30 °C) | self-splicing fitness (ln) (37 °C) |
| --- | --- | --- |
| GAUCAGCAAUAUUACGUGUA | -1.36 ± 0.069 | -0.723 ± 0.082 |
| GAUCAGCAAUAUUACGUUCA | -0.939 ± 0.15 | -0.942 ± 0.18 |
| GAUGAGCAAUAUUACGAAAU | -1.53 ± 0.18 | -1.92 ± 0.37 |
| GAUGAGCAAUAUUACGAAGG | -1.14 ± 0.26 | – |
| GAUGAGCAAUAUUACGAAUC | -3.19 ± 0.41 | -1.89 ± 0.29 |
| GAUGAGCAAUAUUACGACAU | -1.797 ± 0.016 | -1.02 ± 0.034 |
| GAUGAGCAAUAUUACGACCG | -2.84 ± 0.36 | -1.95 ± 0.43 |
| GAUGAGCAAUAUUACGACUA | -1.79 ± 0.12 | -0.933 ± 0.11 |
| GAUGAGCAAUAUUACGCGAA | -3.16 ± 0.16 | -2.04 ± 0.17 |
| GAUGAGCAAUAUUACGCUGC | – | -1.25 ± 0.48 |
| GAUGAGCAAUAUUACGCUGG | -2.08 ± 0.18 | -1.02 ± 0.3 |
| GAUGAGCAAUAUUACGGACU | -1.79 ± 0.25 | -1.66 ± 0.38 |
| GAUGAGCAAUAUUACGGAGA | -2.91 ± 0.5 | -3 ± 0.47 |
| GAUGAGCAAUAUUACGGCAU | -1.71 ± 0.29 | -1.79 ± 0.39 |
| GAUGAGCAAUAUUACGGCUA | -1.01 ± 0.17 | -1.41 ± 0.17 |
| GAUGAGCAAUAUUACGGCUG | -1.42 ± 0.19 | -1.36 ± 0.16 |
| GAUGAGCAAUAUUACGGGAG | -3.76 ± 0.25 | -1.54 ± 0.41 |
| GAUGAGCAAUAUUACGGGGU | -3.36 ± 0.23 | -2.92 ± 0.32 |
| GAUGAGCAAUAUUACGGUAA | -2.21 ± 0.29 | -2.95 ± 0.38 |
| GAUGAGCAAUAUUACGGUGU | -3.67 ± 0.22 | -1.15 ± 0.13 |
| GAUGAGCAAUAUUACGGUUG | -3.87 ± 0.21 | -2.22 ± 0.18 |
| GAUGAGCAAUAUUACGUCAU | -3.15 ± 0.32 | -2.99 ± 0.32 |

| Sequence | self-splicing fitness (ln) (30 °C) | self-splicing fitness (ln) (37 °C) |
| --- | --- | --- |
| GAUGAGCAAUAUUACGUCCC | -2.06 ± 0.43 | -1.04 ± 0.44 |
| GAUGAGCAAUAUUACGUCGU | -2.4 ± 0.15 | -2.13 ± 0.17 |
| GAUGAGCAAUAUUACGUGCU | -2.91 ± 0.44 | – |
| GAUGAGCAAUAUUACGUGGG | -3.45 ± 0.21 | -3.04 ± 0.27 |
| GAUGAGCAAUAUUACGUUCG | -2.05 ± 0.14 | -0.925 ± 0.18 |
| GAUUAGCAAUAUUACGAACU | -0.696 ± 0.15 | -0.559 ± 0.19 |
| GAUUAGCAAUAUUACGACGC | 0.277 ± 0.14 | 0.361 ± 0.14 |
| GAUUAGCAAUAUUACGAGCA | -1.27 ± 0.17 | 0.106 ± 0.14 |
| GAUUAGCAAUAUUACGAUAA | -0.956 ± 0.12 | 0.0487 ± 0.15 |
| GAUUAGCAAUAUUACGCAGA | -3.16 ± 0.23 | -1.16 ± 0.16 |
| GAUUAGCAAUAUUACGCCCA | -0.748 ± 0.11 | 0.123 ± 0.14 |
| GAUUAGCAAUAUUACGCGUA | -1.01 ± 0.1 | -0.855 ± 0.091 |
| GAUUAGCAAUAUUACGGCGG | -0.96 ± 0.16 | -2.17 ± 0.25 |
| GAUUAGCAAUAUUACGGGAA | -1.67 ± 0.26 | -3.27 ± 0.43 |
| GAUUAGCAAUAUUACGGGGA | -2.86 ± 0.19 | -2.71 ± 0.2 |
| GAUUAGCAAUAUUACGGGUC | – | -2.78 ± 0.34 |
| GAUUAGCAAUAUUACGUACU | -0.632 ± 0.073 | 0.0191 ± 0.088 |
| GAUUAGCAAUAUUACGUAGC | -1.74 ± 0.14 | -1.33 ± 0.18 |
| GAUUAGCAAUAUUACGUGGA | -3.92 ± 0.3 | -0.488 ± 0.13 |
| GAUUAGCAAUAUUACGUGGC | -3.36 ± 0.25 | -2.3 ± 0.21 |
| GAUUAGCAAUAUUACGUUAU | -3.04 ± 0.21 | -2.51 ± 0.18 |
